Laboratory results: PMC10687025, “Endosomal Arl4A attenuates EGFR degradation by binding to the ESCRT-II component VPS36” (Nature Communications, 2023)

B1: untagged WT (pSG5) [not stated] / VPS36 precipitated with HA beads (Fig. 4c) [not stated] (parent)
chain 1: MGNGLSDQTSILSNLPSFQSFHIVILGLDCAGKTTVLYRLQFNEFVNTVPTKGFNTEKIKVTLGNSKTVTFHFWDVGGQEKLRPLWKSYTRCTDGIVFVVDSVDVERMEEAKTELHKITRISENQGVPVLIVANKQDLRNSLSLSEIEKLLAMGELSSSTPWHLQPTCAIIGDGLKEGLEKLHDMIIKRRKMLRQQKKKR
chain 2: MDRFVWTSGLLEINETLVIQQRGVRIYDGEEKIKFDAGTLLLSTHRLIWRDQKNHECCMAILLSQIVFIEEQAAGIGKSAKIVVHLHPAPPNKEPGPFQSSKNSYIKLSFKEHGQIEFYRRLSEEMTQRRWENMPVSQSLQTNRGPQPGRIRAVGIVGIERKLEEKRKETDKNISEAFEDLSKLMIKAKEMVELSKSIANKIKDKQGDITEDETIRFKSYLLSMGIANPVTRETYGSGTQYHMQLAKQLAGILQVPLEERGGIMSLTEVYCLVNRARGMELLSPEDLVNACKMLEALKLPLRLRVFDSGVMVIELQSHKEEEMVASALETVSEKGSLTSEEFAKLVGMSVLLAKERLLLAEKMGHLCRDDSVEGLRFYPNLFMTQS

Variants of: B1
Assay: co-immunoprecipitation (HA beads) with densitometric quantification
Details: with VPS36 precipitated with HA beads (Fig. 4c); HeLa cell lysates; parent: 1; read off a plot

Compared with chain 1 T51N, chain 1 Q79L is lower in ratio to parent: 2.6 for the first, 1.4 for the second.
